According to US9717715B2, “Method of combination therapy using an anti-C-Met antibody” (Samsung Electronics Co., Ltd., priority 2013, dated 2017):

How the values were obtained:
c-Met in MKN45 cells = molecular target: T1, c-Met in MKN45 cells (Homo sapiens, UniProt P08581); assay: Degree of degradation of c-Met (total c-Met ELISA); assay type: cell-based; conditions: 5 ug/ml, 24 hours, FIG. 9B
T1 construct: MKN45 gastric cancer cells on which c-Met is expressed; endogenous in cells; host or cells: MKN45 gastric cancer cells (JCRB)
Experimental: In order to identify anti-cancer effects of the 4 types of antibodies having improved affinities, as prepared in Example 5, the degree of degradation of c-Met bound to the antibodies was evaluated. A relative total amount of c-Met was obtained by measuring the change in the total amount of c-Met after the antibody binds to c-Met to degrade c-Met via internalization, and thus the efficacy of the antibody was evaluated.
MKN45 cells (2×10^5 cells/ml) and each of the antibodies (5 ug/ml) were simultaneously introduced to a 96-well plate and incubated for 24 hours. Then, lysis of the cells treated with antibodies was performed and the change in the total amount of c-Met was measured using a Human total HGF R/c-Met ELISA KIT (R&D systems, DYC358) and analyzed.
In order to identify anti-cancer effects of the 3 types of antibodies having improved affinities, as prepared in Example 11, the degree of degradation of c-Met bound to the antibody was evaluated. MKN45 cells (2×10^5 cells/ml) and each of the antibodies (5 ug/ml) were simultaneously introduced to a 96-well plate and incubated for 24 hours. Then, lysis of the cells treated with antibodies was performed and a change of the total amount of c-Met was measured using a Human total HGF R/c-Met ELISA KIT (R&D systems, DYC358) and analyzed.

[1] = tested on: Akt phosphorylation in Caki-1 cells; assay: Akt phosphorylation (phospho-AKT1 Ser473 sandwich ELISA); assay type: cell-based; conditions: 5 ug/ml, FIG. 8B
Description: Cellular processes regulated by Akt include cell proliferation, cell survival, cell size control, and response to nutrient availability, intermediary metabolism, angiogenesis, and tissue invasion. All these processes represent characteristics of cancer and many oncoproteins and tumor suppressors intersect in the Akt pathway, finely regulating cellular functions at the interface of signal transduction and classical metabolic regulation. Thus, as the content of phosphorylated Akt that is an active form increases, the activity of cancer cells increases. Here, the degree of inhibiting Akt phosphorylation by the 4 types of antibodies having improved affinities was evaluated.
To compare agonism of the 4 types of antibodies having improved affinities, as prepared in Example 5, Caki-1 cells (Korean Cell Line Bank) were used to confirm the degree of Akt phosphorylation. Mouse IgG was used as a negative control, and antibody 5D5 (a known agonist) was used as a positive control.
2×10^5 cells/ml of Caki-1 cells were introduced to a 96-well plate, and after 24 hours, each of 5 ug/ml of the antibodies was treated in serum free medium for 30 minutes. Lysis of the cells treated with the antibodies was performed and the degree of Akt phosphorylation was measured using a PathScan phospho-AKT1 (Ser473) chemiluminescent Sandwich ELISA kit (Cell Signaling, cat. no #7134S). […]

T1 sequence (P08581 25-1390): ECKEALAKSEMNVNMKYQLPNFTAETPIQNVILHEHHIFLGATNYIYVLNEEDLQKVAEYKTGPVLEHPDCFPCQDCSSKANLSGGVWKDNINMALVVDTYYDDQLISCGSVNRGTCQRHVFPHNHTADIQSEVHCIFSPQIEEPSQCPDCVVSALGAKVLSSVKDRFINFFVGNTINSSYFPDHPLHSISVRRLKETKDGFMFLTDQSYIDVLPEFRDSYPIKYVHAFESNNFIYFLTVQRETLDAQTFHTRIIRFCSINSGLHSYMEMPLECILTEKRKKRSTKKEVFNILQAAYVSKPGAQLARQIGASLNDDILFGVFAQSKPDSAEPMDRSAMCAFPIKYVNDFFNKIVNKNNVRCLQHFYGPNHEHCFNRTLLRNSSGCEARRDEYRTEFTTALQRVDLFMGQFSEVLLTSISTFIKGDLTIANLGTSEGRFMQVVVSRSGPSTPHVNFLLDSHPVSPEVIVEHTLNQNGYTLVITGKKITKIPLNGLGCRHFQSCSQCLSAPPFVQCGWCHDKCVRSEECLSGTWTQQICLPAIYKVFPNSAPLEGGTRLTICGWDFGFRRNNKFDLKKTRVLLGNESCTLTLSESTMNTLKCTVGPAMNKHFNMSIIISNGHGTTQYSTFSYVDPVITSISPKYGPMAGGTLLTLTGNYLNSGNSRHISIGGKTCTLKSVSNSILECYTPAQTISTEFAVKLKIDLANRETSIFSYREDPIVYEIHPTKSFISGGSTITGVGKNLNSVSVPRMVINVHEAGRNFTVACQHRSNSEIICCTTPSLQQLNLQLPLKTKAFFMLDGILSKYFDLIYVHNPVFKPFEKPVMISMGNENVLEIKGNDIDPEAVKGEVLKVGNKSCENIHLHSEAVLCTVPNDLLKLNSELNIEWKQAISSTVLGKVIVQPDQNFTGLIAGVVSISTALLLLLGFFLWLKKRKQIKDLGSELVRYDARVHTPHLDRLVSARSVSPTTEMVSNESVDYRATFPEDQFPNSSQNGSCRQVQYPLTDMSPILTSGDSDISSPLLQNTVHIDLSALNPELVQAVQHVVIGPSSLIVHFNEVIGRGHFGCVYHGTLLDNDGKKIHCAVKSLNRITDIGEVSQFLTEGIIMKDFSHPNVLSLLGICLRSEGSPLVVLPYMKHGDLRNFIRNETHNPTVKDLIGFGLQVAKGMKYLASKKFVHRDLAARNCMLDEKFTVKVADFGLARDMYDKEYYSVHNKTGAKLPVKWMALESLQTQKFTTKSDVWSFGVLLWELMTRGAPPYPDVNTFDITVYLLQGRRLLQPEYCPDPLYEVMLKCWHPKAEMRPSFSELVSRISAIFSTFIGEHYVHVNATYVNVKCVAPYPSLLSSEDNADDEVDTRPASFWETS

B1: L3-11Y: light chain SEQ ID NO: 73 (serine 27e replaced with tryptophan) and the heavy chain of huAbF46-H4-A1 (IgG2 Fc) (antibody)
heavy: EVQLVESGGGLVQPGGSLRLSCAASGFTFTDYYMSWVRQAPGKGLEWLGFIRNKANGYTTEYSASVKGRFTISRDNSKNTLYLQMNSLRAEDTAVYYCARDNWFAYWGQGTLVTVSSASTKGPSVFPLAPCSRSTSESTAALGCLVKDYFPEPVTVSWNSGALTSGVHTFPAVLQSSGLYSLSSVVTVPSSNFGTQTYTCNVDHKPSNTKVDKTVERKCCVECPPCPAPPVAGPSVFLFPPKPKDTLMISRTPEVTCVVVDVSHEDPEVQFNWYVDGVEVHNAKTKPREEQFNSTFRVVSVLTVVHQDWLNGKEYKCKVSNKGLPAPIEKTISKTKGQPREPQVYTLPPSREEMTKNQVSLTCLVKGFYPSDIAVEWESNGQPENNYKTTPPMLDSDGSFFLYSKLTVDKSRWQQGNVFSCSVMHEALHNHYTQKSLSLSPGK
light: DIQMTQSPSSLSASVGDRVTITCKSSQSLLAWGNQNNYLAWYQQKPGKAPKMLIIWASTRVSGVPSRFSGSGSGTDFTLTISSLQPEDFATYYCQQSYSRPYTFGQGTKVEIKRTVAAPSVFIFPPSDEQLKSGTASVVCLLNNFYPREAKVQWKVDNALQSGNSQESVTEQDSKDSTYSLSSTLTLSKADYEKHKVYACEVTHQGLSSPVTKSFNRGEC
Q: Which results are given for B1?
A: activity of c-Met degradation compared to huAbF46-H4-A1 (IgG2 Fc) (c-Met in MKN45 cells): approximately equal activity of c-Met degradation; activity of Akt phosphorylation inhibition compared to huAbF46-H4-A1 (IgG2 Fc) [1]: equal or higher activity of Akt phosphorylation inhibition
